# Laboratory results from patent US10488411B2, “Inflammasome activation in myelodysplastic syndromes” (H. LEE MOFFITT CANCER CENTER AND RESEARCH INSTITUTE, INC., priority 2015, dated 2019).
# How the values were obtained:
# [1] = tested on: pyroptosis-related gene expression; experiment: qPCR of pyroptosis-related gene expression in lower-risk MDS BM-MNC; assay type: cell-based, human; conditions: lower-risk MDS BM-MNC (n=5), 24 hours, versus autologous BM plasma alone
# Experimental: Real-time quantitative PCR. RNA was isolated from BM-MNC using the RNeasy Mini Kit (Qiagen). cDNA was produced using the iScript cDNA Synthesis Kit (Bio-Rad). Sequences for primers can be found in Table 1. GAPDH mRNA was used for transcript normalization. cDNA was amplified using the iQ SYBR Green Supermix and the CFX96 Real-Time PCR Detection System (Bio-Rad). PCR conditions were as follows: 10 minutes at 95° C., followed by 40 cycles of amplification (15 seconds at 95° C. and 1 minute at 60° C.). Relative gene expression was calculated using the −2^ΔΔCt method.
# MDS BM-MNC = experiment: Pyroptosis flow cytometry panel (a-caspase-1+/annexin-V+) in MDS BM-MNC incubated with autologous BM plasma; assay type: cell-based, human
# Experimental: Pyroptosis flow cytometry panel. For human samples, treated and untreated BM-MNC were incubated overnight in IMDM, supplemented with 10% autologous BM plasma. Subsequently, cells were harvested, washed twice in 1×PBS, and stained with LIVE/DEAD Violet fluorescent reactive dye according to the manufacturer's protocol (Life Technologies). Cells were resuspended in 1×PBS with 2% BSA, and incubated at room temperature for 15 minutes to block non-specific binding. After washing, cells were stained with 30× FAM-FLICA® Caspase-1 and Caspase-3/7 solution at a ratio of 1:30 for 2 hours at 37° C. Cells were washed and stained for cell surface receptors using CD38:PE-CF594, CD33:BV711, CD34:APC (BD Biosciences), and CD71:PE-Cyanine7 (eBioscience). All antibodies were diluted 1:20, and cells were stained for 30 minutes at 4° C. Cells were washed, resuspended in 1× binding buffer, and stained with Annexin-V:Cy5.5 at a dilution of 1:20 for 15 minutes at room temperature (BD Biosciences). 1× binding buffer was added to a final volume of 400 μL. Sample acquisitions were carried out using a BD LSR II flow cytometer and FACSDiva software (BD Biosciences). Calibration of the flow cytometer was carried out prior to each experiment using Rainbow Mid-Range Fluorescent Particles (BD Biosciences). To establish fluorescence compensation settings, ArC Amine Reactive Compensation Beads were used for LIVE/DEAD Violet staining (Life Technologies), and BD CompBead Plus Anti-Mouse Ig κ/Negative Control (BSA) Compensation Plus Particles were used for surface receptor conjugates (BD Biosciences). Data were analyzed using FlowJo 9.7.5 software (FlowJo, LLC, Ashland, Oreg.).
molecule,measurement,setting,value
"CD33-IgG1: S100A9 high-affinity chimeric (CD33-IgG1) decoy receptor (protein, left off: a dimerising Fc or GST) DPNFWLQVQESVTVQEGLCVLVPCTFFHPIPYYDKNSPVHGYWFREGAIISRDSPVATNKLDQEVQEETQGRFRLLGDPSRNNCSLSIVDARRRDNGSYFFRMERGSTKYSYKSPQLSVHVTDLTHRPKILIPGTLEPGHSKNLTCSVSWACEQGTPPIFSWLSAAPTSLGPRTTHSSVLIITPRPQDHGTNLTCQVKFAGAGVTTERTIQLNVTYVPQNPTTGIFPGDGSGKQETRAGVVH",CASP3 expression,[1],markedly reduced
same,expression of CASP1,[1],reduced
same,expression of IL-1β,[1],reduced
same,expression of IL-18,[1],reduced
same,expression of NLRP3,[1],reduced
same,"reduction of fraction of pyroptotic cells, maximum lineage-specific change, CD33+ cells","MDS BM-MNC; CD33+ immature myeloids, 0.5 μg CD33-IgG1 or 0.1 μM IRAK4 inhibitor, 24 hours, autologous BM plasma",68%
same,"reduction of fraction of pyroptotic cells, maximum lineage-specific change, CD71+ cells","MDS BM-MNC; CD71+ erythroids, 0.5 μg CD33-IgG1 or 0.1 μM IRAK4 inhibitor, 24 hours, autologous BM plasma",64%
same,fraction of pyroptotic cells across all lineages studied,"MDS BM-MNC; MDS BM-MNC (n=4) with autologous BM plasma, 0.5 μg CD33-IgG1 or 0.1 μM IRAK4 inhibitor, 24 hours",marked reduction
same,"reduction of fraction of pyroptotic cells, maximum lineage-specific change, progenitor cells","MDS BM-MNC; progenitor cells (CD34+CD38+), 0.5 μg CD33-IgG1 or 0.1 μM IRAK4 inhibitor, 24 hours, autologous BM plasma",23%
same,MDSC fraction,MDS BM-MNC; short-term treatment of MDS BM-MNC,significantly reduced
same,"reduction of fraction of pyroptotic cells, maximum lineage-specific change, stem cells","MDS BM-MNC; stem cells (CD34+CD38-), 0.5 μg CD33-IgG1 or 0.1 μM IRAK4 inhibitor, 24 hours, autologous BM plasma",44%
